From paper doi:10.1101/2021.02.17.431740 (bioRxiv, 2021)
Non-standard residues stand in square brackets, D forms with d. pY = N[C@@H](Cc1ccc(OP(=O)(O)O)cc1)C(=O)O

Experiments:
[1] = biological target: recombinant full-length human CrkII (human, UniProt P46108-1 1-304); experiment: ITC
[2] = biological target: recombinant full-length human Grb2 (human, UniProt P62993-1 1-217); experiment: ITC
Chain of recombinant full-length human Grb2 (P62993 whole entry): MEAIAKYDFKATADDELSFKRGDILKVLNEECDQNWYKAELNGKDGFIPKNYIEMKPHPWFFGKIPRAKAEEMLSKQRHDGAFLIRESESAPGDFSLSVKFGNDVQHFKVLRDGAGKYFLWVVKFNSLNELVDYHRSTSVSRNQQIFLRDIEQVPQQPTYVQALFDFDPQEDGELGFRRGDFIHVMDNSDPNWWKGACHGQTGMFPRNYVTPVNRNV

Chain of recombinant full-length human CrkII (P46108 whole entry): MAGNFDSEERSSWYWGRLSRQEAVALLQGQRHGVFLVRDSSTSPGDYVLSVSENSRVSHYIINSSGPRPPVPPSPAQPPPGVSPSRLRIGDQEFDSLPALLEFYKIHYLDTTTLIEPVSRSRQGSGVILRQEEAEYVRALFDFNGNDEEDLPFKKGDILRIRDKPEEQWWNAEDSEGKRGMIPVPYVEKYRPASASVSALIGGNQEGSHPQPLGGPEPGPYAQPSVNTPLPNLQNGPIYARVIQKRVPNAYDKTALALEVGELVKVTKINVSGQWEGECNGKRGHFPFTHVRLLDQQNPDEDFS

Ac-T[pY]SNLGQ-NH2 [PEAK3 phosphorylated peptide Ac-T(pY)SNLGQ-NH2]
Kd [1]: 7.8 µM | stoichiometry N [1]: 1 | stoichiometry N [2]: 1
